# Measured values from PMC6780499, “Characterization, Recombinant Production and Structure-Function Analysis of NvCI, A Picomolar Metallocarboxypeptidase Inhibitor from the Marine Snail Nerita versicolor” (Marine Drugs, 2019).
# No end group written: not given here.
# T1: hCPB (Homo sapiens, UniProt P15086)
# T1 sequence (P15086 111-417): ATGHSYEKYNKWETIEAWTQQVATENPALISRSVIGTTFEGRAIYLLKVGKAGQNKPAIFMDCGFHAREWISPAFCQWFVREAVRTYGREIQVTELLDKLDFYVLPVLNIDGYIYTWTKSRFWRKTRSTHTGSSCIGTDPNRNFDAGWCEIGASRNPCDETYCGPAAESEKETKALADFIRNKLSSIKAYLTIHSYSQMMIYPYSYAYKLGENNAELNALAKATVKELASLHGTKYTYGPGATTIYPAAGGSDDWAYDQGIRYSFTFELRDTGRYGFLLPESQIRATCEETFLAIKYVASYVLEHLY
# T2: hCPA1 (Homo sapiens, UniProt P15085)
# T2 sequence (P15085 111-419): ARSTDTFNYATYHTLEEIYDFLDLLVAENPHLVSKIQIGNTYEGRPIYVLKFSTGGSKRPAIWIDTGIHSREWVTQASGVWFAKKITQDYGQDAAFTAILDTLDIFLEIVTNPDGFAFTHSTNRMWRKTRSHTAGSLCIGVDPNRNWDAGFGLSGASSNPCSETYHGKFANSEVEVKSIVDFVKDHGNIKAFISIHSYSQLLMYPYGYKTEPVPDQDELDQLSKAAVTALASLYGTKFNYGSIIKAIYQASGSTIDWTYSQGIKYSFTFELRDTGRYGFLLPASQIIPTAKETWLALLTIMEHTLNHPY
# T3: bCPA1 (Bos taurus (Bovine), UniProt P00730)
# T3 chain: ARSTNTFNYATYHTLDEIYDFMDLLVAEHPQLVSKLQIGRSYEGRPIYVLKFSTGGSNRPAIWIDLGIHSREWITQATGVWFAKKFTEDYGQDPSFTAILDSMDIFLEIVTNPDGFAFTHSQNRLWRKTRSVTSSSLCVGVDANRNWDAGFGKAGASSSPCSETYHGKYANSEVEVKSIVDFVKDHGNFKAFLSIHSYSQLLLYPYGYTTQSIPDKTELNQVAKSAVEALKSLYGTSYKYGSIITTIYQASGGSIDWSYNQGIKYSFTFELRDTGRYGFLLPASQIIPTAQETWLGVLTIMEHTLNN
# T4: hCPZ (Homo sapiens (Human), UniProt Q66K79)
# T4 chain: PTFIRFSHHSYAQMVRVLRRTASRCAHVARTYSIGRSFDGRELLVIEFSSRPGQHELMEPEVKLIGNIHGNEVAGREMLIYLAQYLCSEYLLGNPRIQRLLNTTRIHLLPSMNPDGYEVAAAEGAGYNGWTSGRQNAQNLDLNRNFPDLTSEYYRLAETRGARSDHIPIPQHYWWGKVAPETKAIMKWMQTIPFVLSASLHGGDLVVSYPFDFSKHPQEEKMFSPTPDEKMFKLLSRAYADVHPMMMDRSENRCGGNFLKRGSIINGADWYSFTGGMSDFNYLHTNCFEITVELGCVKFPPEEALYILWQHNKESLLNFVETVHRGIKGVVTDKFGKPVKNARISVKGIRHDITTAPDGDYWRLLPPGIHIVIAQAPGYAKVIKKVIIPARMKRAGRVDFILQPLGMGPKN
# T5: rCPA3 (Rattus norvegicus (Rat), UniProt P21961)
# T5 chain: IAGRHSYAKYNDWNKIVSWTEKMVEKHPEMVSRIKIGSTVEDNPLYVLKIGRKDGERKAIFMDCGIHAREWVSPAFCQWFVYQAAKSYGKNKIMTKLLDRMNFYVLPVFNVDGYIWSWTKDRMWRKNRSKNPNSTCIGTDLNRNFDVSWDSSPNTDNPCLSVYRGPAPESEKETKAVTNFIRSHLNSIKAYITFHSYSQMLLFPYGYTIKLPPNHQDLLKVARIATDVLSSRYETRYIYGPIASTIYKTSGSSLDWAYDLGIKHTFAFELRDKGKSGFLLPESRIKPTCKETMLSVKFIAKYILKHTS
# Columns and labels:
# hCPB = biological target: T1, hCPB; assay: Ki determination, tight-binding inhibition of metallocarboxypeptidase; assay type: biochemical; conditions: tight-binding equation fit, equilibrium conditions; substrate AAFA 0.1mM; preincubation 15 min; 37 °C; means (n = 3) ± SD
# hCPA1 = biological target: T2, hCPA1; assay: as above; assay type: biochemical; conditions: tight-binding equation fit, equilibrium conditions; substrate AAFP 0.1mM, 20mM Tris-HCl pH 7.5, 500mM NaCl; preincubation 15 min; 37 °C; means (n = 3) ± SD
# bCPA1 = biological target: T3, bCPA1; assay: Ki, residual activity
# hCPZ = biological target: T4, hCPZ; assay: Ki, residual activity
# rCPA3 = biological target: T5, rCPA3; assay: Ki, residual activity
Molecule,Ki (hCPB) [nM],Ki (hCPA1) [pM],Kd (bCPA1) [pM],Kd (hCPZ) [nM],Kd (rCPA3) [nM]
"NvCI: 53-residue, three-disulphide proteinaceous metallocarboxypeptidase inhibitor from the marine snail Nerita versicolor; major isoform; UniProt P86912 (FHVPDDRPCINPGRCPLVPDATCTFVCKAADNDFGYECQHVWTFEGQRVGCYA; disulfide (positions not given here); also: three disulphides, pairing not given here; UniProt P86912 1-53, looked up)",0.111 ± 0.0047,1.8 ± 0.2,–,–,–
"NvCI (protein, disulfide (positions not given here); not fully specified (bridges); ends not checked) FHVPDDRPCINPGRCPLVPDATCTFVCKAADNDFGYECQHVWTFEGQRVGCYA",–,–,5.8,> 1000,0.1
